From patent US6583108B1, “Human bikunin” (Bayer Corporation, dated 2003)
Like-named read-outs stand apart in the source and are kept apart here.

Experiments:
[1] = target: bovine trypsin (bovine) (UniProt P00760)
[2] = target: Factor XIIa; test: enzyme inhibition kinetics; first preparation of bikunin (7-64)
[3] = target: Factor XIa; test: enzyme inhibition kinetics, E(OBz)AR-AMC substrate
[4] = target: bovine trypsin (bovine) (UniProt P00760); remark: listed apart in the source
[5] = target: Factor XIa; test: enzyme inhibition kinetics
[6] = target: human neutrophil elastase (human, UniProt P08246); test: enzyme inhibition kinetics; first preparation of bikunin (7-64)
[7] = target: bovine trypsin (bovine) (UniProt P00760); remark: listed apart in the source
[8] = target: bovine pancreatic kallikrein (bovine); test: enzyme inhibition kinetics; first preparation of bikunin (7-64)
[9] = target: bovine trypsin (bovine) (UniProt P00760); remark: listed apart in the source
[10] = target: Tissue Factor VIIa; test: enzyme inhibition kinetics; Sf9-derived bikunin (1-170)
[11] = target: bovine pancreatic kallikrein (bovine); test: as above
[12] = target: Factor XIa; test: as above
[13] = target: bovine trypsin (bovine) (UniProt P00760); remark: listed apart in the source

Sequence of bovine trypsin (bovine) (P00760 24-246): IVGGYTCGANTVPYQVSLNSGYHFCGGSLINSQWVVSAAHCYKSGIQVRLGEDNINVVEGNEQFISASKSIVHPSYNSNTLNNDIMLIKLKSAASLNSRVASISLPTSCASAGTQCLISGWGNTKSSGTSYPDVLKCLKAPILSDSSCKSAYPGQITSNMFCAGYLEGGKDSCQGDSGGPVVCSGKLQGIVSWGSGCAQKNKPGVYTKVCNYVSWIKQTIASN

recombinant placental bikunin (102-159) expressed in yeast SC101 (construct #1)
inhibition of trypsin by yeast culture supernatant (applysate) [1]: 82%

synthetic placental bikunin (7-64)
Ki [2]: > 300 nM

synthetic placental bikunin (102-159)
Ki [3]: 15 nM
trypsin inhibitory activity, specific activity (U/mg) of the purified refolded peptide [4]: 300000 U/mg
Ki [5]: 15 nM

B1: synthetic placental bikunin (7-64) (other)
chain: IHDFCLVSKVVGRCRASMPRWWYNVTDGSCQLFVYGGCDGNSNNYLTKEECLKKCATV
Ki [6]: > 100 nM
trypsin inhibitory activity, specific activity (U/mg) of the purified refolded peptide [7]: 294000 U/mg
Ki [8]: 0.4 nM

B2: native human placental bikunin isolated from human placenta (protein)
chain: ADRERSIHDFCLVSKVVGRCRASMPRWWYNVTDGSCQLFVYGGCDGNSNNYLTKEECLKKCATVTENATGDLATSRNAADSSVPSAPRRQDSEDHSSDMFNYEEYCTANAVTGPCRASFPRWYFDVERNSCNNFIYGGCRGNKNSYRSEEACMLRCFRQQENPPLPLGSK
modifications: probably glycosylated at the asparagine residue at position 30
trypsin inhibitory activity (Units/OD 280) after Superdex 75 [9]: 24500 Units/OD 280

B3: recombinant placental bikunin (1-170) from baculovirus/Sf9 expression (protein)
chain: ADRERSIHDFCLVSKVVGRCRASMPRWWYNVTDGSCQLFVYGGCDGNSNNYLTKEECLKKCATVTENATGDLATSRNAADSSVPSAPRRQDSEDHSSDMFNYEEYCTANAVTGPCRASFPRWYFDVERNSCNNFIYGGCRGNKNSYRSEEACMLRCFRQQENPPLPLGSK
modifications: probably glycosylated at the asparagine residue at position 30
Ki [10]: 800 nM
Ki [11]: 0.12 nM
Ki [12]: 3 nM
trypsin inhibitory activity, specific activity (U/OD) after C18 reverse-phase [13]: 72200 U/OD

B4: placental bikunin 101-159 expressed in yeast (construct #3) (protein)
chain: NYEEYCTANAVTGPCRASFPRWYFDVERNSCNNFIYGGCRGNKNSYRSEEACMLRCFRQ
inhibition of trypsin by yeast culture supernatant (applysate) [1]: 25%

B5: placental bikunin 98-159 expressed in yeast (construct #4) (protein)
chain: DMFNYEEYCTANAVTGPCRASFPRWYFDVERNSCNNFIYGGCRGNKNSYRSEEACMLRCFRQ
inhibition of trypsin by yeast culture supernatant (applysate) [1]: 93%
